Target: T1, recombinant human PCPE-2 (procollagen C-proteinase enhancer 2) fused to a 6 Histidine-tag at the N-terminus (human) (UniProt Q9UKZ9)
T1 sequence: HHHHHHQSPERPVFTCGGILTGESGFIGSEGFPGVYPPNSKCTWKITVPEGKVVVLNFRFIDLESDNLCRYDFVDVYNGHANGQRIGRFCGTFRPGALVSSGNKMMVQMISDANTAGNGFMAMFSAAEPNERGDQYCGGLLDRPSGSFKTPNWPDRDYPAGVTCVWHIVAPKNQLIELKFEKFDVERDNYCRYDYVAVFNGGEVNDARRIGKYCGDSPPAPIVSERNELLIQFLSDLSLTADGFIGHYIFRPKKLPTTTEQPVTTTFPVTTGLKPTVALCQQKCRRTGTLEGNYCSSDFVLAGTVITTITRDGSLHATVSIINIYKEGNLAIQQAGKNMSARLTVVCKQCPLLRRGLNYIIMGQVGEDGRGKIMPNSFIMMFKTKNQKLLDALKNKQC
Assay: SPR competition: BMP-1 (200 nM) co-injected with PCPE-2 (200 nM) over immobilized C-propeptide III carrying PCPE-2

- % inhibition: 77%
B1: human BMP-1 (bone morphogenetic protein-1) fused to a C-terminal Flag tag (enzyme, UniProt P13497-2 121-730, looked up, not shown: small tags and cut ends)
chain: AATSRPERVWPDGVIPFVIGGNFTGSQRAVFRQAMRHWEKHTCVTFLERTDEDSYIVFTYRPCGCCSYVGRRGGGPQAISIGKNCDKFGIVVHELGHVVGFWHEHTRPDRDRHVSIVRENIQPGQEYNFLKMEPQEVESLGETYDFDSIMHYARNTFSRGIFLDTIVPKYEVNGVKPPIGQRTRLSKGDIAQARKLYKCPACGETLQDSTGNFSSPEYPNGYSAHMHCVWRISVTPGEKIILNFTSLDLYRSRLCWYDYVEVRDGFWRKAPLRGRFCGSKLPEPIVSTDSRLWVEFRSSSNWVGKGFFAVYEAICGGDVKKDYGHIQSPNYPDDYRPSKVCIWRIQVSEGFHVGLTFQSFEIERHDSCAYDYLEVRDGHSESSTLIGRYCGYEKPDDIKSTSSRLWLKFVSDGSINKAGFAVNFFKEVDECSRPNRGGCEQRCLNTLGSYKCSCDPGYELAPDKRRCEAACGGFLTKLNGSITSPGWPKEYPPNKNCIWQLVAPTQYRISLQFDFFETEGNDVCKYDFVEVRSGLTADSKLHGKFCGSEKPEVITSQYNNMRVEFKSDNTVSKKGFKAHFFSEKRPALQPPRGRPHQLKFRVQKRNRTPQ
